Reference: paper PMC3334620

Molecular target: T1, Stb5 (Saccharomyces cerevisiae) (UniProt P38699)
T1 sequence: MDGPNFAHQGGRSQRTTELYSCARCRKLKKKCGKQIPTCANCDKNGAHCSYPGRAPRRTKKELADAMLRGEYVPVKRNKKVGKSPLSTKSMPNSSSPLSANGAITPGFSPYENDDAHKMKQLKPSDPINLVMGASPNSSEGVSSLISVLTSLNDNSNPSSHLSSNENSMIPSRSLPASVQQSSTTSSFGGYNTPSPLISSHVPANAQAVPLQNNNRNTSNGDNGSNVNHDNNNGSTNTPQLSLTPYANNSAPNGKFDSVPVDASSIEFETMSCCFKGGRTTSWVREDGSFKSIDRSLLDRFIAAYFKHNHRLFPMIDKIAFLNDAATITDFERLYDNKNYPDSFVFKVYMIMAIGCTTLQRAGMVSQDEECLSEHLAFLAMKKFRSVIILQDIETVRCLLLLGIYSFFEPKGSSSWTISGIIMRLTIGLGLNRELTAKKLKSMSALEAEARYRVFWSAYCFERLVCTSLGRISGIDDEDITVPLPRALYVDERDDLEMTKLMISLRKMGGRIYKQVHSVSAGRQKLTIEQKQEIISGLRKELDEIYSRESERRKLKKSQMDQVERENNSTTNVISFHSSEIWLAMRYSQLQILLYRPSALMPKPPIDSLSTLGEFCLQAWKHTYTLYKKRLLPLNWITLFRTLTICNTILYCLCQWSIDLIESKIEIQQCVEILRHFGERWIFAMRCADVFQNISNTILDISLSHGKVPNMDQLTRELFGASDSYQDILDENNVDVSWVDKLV
Conditions: 200 nM

| Sequence | binding signal (PBM E-score (-0.5 to 0.5)) |
| --- | --- |
| CGGACTTA (double strand) [8-mer CGGACTTA] | 0.483 |
| CGGTGATA (double strand) [8-mer CGGTGATA] | 0.488 |
| CGGCACTA (double strand) [8-mer CGGCACTA] | 0.481 |
| CGGCGTTA (double strand) [8-mer CGGCGTTA] | 0.49 |
| CGGGGTTA (double strand) [8-mer CGGGGTTA] | 0.495 |
| CGGTGTTA (double strand) [8-mer CGGTGTTA] | 0.496 |
| CGGTGCTA (double strand) [8-mer CGGTGCTA] | 0.488 |
| CGGTCTTA (double strand) [8-mer CGGTCTTA] | 0.48 |
| AACCCCGC (double strand) [8-mer AACCCCGC] | 0.484 |
| AAACACCG (double strand) [8-mer AAACACCG] | 0.491 |
| AACACCGC (double strand) [8-mer AACACCGC] | 0.48 |
| CGGAGATA (double strand) [8-mer CGGAGATA] | 0.48 |
| CGGCCTTA (double strand) [8-mer CGGCCTTA] | 0.481 |
| CGGCATTA (double strand) [8-mer CGGCATTA] | 0.489 |

Molecular target: T2, Sko1 (Saccharomyces cerevisiae) (UniProt Q02100)
T2 sequence: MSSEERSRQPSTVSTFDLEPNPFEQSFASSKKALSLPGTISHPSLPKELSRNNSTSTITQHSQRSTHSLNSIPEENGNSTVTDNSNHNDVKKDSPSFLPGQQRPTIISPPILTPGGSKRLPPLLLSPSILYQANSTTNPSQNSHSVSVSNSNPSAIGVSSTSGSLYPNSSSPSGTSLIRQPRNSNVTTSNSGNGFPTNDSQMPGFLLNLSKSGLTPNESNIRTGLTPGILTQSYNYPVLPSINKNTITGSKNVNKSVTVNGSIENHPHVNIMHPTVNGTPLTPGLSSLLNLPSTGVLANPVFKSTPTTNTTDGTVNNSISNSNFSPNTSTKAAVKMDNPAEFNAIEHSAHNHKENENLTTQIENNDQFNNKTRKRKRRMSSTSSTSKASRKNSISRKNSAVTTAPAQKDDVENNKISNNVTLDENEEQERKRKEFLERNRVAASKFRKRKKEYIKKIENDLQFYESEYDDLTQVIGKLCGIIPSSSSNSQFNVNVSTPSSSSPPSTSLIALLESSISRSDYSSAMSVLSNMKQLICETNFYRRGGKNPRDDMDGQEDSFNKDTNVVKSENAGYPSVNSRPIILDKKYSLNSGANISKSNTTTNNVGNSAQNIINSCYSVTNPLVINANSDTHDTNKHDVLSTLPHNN
Conditions: 200 nM

| Sequence | binding signal (PBM E-score (-0.5 to 0.5)) |
| --- | --- |
| GTGACGTA (double strand) [8-mer GTGACGTA] | 0.494 |
| ACGTCATC (double strand) [8-mer ACGTCATC] | 0.498 |
| ATACGTCA (double strand) [8-mer ATACGTCA] | 0.494 |
| AATGACGT (double strand) [8-mer AATGACGT] | 0.498 |
| ATGACGTC (double strand) [8-mer ATGACGTC] | 0.497 |
| ATGACGTA (double strand) [8-mer ATGACGTA] | 0.5 |
| CTACGTCA (double strand) [8-mer CTACGTCA] | 0.493 |
| ACGTCATG (double strand) [8-mer ACGTCATG] | 0.497 |
| ATGACGTG (double strand) [8-mer ATGACGTG] | 0.496 |
| ACGTCATA (double strand) [8-mer ACGTCATA] | 0.498 |
| TGACGTCA (double strand) [8-mer TGACGTCA] | 0.499 |

Molecular target: T3, Msn1 (Saccharomyces cerevisiae) (UniProt P22148)
T3 sequence: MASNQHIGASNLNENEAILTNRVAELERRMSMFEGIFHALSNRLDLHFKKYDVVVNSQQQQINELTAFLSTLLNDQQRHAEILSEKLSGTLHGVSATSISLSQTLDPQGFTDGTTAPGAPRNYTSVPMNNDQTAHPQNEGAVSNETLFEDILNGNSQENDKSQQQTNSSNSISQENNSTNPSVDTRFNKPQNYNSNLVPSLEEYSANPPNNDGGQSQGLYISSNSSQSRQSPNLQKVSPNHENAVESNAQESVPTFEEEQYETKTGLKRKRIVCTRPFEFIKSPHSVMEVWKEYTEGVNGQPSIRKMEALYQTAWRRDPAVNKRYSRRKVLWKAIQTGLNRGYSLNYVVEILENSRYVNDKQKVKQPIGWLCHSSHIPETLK
Conditions: 200 nM

| Sequence | binding signal (PBM E-score (-0.5 to 0.5)) |
| --- | --- |
| GGGACAAA (double strand) [8-mer GGGACAAA] | 0.496 |
| GGACAAAC (double strand) [8-mer GGACAAAC] | 0.491 |
| AATGTCCT (double strand) [8-mer AATGTCCT] | 0.496 |
| AATGTCCC (double strand) [8-mer AATGTCCC] | 0.496 |
| GGACAAAA (double strand) [8-mer GGACAAAA] | 0.494 |
| AAAATGTC (double strand) [8-mer AAAATGTC] | 0.491 |
| AGGACAAA (double strand) [8-mer AGGACAAA] | 0.498 |

Molecular target: T4, Pdr3 (Saccharomyces cerevisiae) (UniProt P33200)
T4 sequence: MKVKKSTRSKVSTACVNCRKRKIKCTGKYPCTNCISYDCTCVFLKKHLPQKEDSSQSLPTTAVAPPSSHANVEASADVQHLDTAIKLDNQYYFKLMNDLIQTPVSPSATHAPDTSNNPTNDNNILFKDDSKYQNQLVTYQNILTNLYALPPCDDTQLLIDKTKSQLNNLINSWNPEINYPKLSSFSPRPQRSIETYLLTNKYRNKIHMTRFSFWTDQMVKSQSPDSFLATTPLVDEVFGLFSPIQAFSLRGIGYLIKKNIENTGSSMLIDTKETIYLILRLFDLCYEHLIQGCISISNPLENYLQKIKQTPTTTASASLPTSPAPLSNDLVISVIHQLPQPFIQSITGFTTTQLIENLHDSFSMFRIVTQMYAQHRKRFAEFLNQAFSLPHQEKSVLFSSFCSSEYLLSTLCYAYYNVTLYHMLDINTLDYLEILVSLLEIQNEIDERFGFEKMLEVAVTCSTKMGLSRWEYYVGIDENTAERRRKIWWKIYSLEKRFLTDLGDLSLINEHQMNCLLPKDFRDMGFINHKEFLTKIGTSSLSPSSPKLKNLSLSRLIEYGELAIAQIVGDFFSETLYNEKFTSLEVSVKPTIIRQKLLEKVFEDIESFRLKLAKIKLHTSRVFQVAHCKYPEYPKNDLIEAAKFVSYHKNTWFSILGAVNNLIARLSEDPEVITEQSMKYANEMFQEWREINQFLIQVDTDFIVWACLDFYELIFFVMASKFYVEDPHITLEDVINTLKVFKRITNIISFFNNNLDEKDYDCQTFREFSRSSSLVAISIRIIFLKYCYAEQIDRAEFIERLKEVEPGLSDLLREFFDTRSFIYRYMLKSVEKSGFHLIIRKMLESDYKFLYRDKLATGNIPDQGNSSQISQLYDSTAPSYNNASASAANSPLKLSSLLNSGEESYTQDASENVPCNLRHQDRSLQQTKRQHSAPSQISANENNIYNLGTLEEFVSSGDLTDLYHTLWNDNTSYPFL
Conditions: 200 nM

| Sequence | binding signal (PBM E-score (-0.5 to 0.5)) |
| --- | --- |
| ATCCGCGG (double strand) [8-mer ATCCGCGG] | 0.496 |
| CCGCGGAA (double strand) [8-mer CCGCGGAA] | 0.499 |
| AACGGAAC (double strand) [8-mer AACGGAAC] | 0.49 |
| GCCGCGGA (double strand) [8-mer GCCGCGGA] | 0.495 |
| CCGCGGAG (double strand) [8-mer CCGCGGAG] | 0.498 |
| CCGCGGAC (double strand) [8-mer CCGCGGAC] | 0.495 |
| CCCCGCGG (double strand) [8-mer CCCCGCGG] | 0.492 |
| CCGCGGGA (double strand) [8-mer CCGCGGGA] | 0.499 |
| CCCGCGGA (double strand) [8-mer CCCGCGGA] | 0.498 |
| ACCCGCGG (double strand) [8-mer ACCCGCGG] | 0.497 |
| CGCGGAAC (double strand) [8-mer CGCGGAAC] | 0.491 |
| CCGCGGCA (double strand) [8-mer CCGCGGCA] | 0.49 |
| CCCGCGGG (double strand) [8-mer CCCGCGGG] | 0.498 |

Molecular target: T5, Stp1 (Saccharomyces cerevisiae) (UniProt Q00947)
T5 sequence: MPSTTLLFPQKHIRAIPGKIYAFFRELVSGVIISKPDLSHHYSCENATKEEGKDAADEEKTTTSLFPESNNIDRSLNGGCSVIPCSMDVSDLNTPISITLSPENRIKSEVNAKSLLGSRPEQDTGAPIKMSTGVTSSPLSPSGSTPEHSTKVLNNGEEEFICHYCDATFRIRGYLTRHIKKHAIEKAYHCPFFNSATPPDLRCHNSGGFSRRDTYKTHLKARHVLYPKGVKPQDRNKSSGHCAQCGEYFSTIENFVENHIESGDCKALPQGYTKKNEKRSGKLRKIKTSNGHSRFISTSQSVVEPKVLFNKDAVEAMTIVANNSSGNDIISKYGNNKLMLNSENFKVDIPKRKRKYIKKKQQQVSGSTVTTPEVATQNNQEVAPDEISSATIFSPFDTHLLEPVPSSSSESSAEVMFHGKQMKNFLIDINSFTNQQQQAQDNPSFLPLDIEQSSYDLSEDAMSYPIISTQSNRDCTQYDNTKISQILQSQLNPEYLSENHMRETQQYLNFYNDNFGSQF
Conditions: 200 nM

| Sequence | binding signal (PBM E-score (-0.5 to 0.5)) |
| --- | --- |
| GCGCCGCA (double strand) [8-mer GCGCCGCA] | 0.491 |
| GCGCCGTA (double strand) [8-mer GCGCCGTA] | 0.495 |
| CACGGCAC (double strand) [8-mer CACGGCAC] | 0.491 |
| ACGGCGCG (double strand) [8-mer ACGGCGCG] | 0.492 |
| CGCGGCAC (double strand) [8-mer CGCGGCAC] | 0.49 |
| ACGGCGCC (double strand) [8-mer ACGGCGCC] | 0.49 |
